This note sets out measurements from US20230257453A1 (published 2023).

Where a chain is given by its changes, count along the chain named.

To fix the notation:
B1: P27652716 (antibody, V domains shown)
VH: QVTLKESGPALVKPTQTLTLTCTFSGFSLSTPGMGVWWIRQPPGEGLEWLADIWWDDNKYTNPSLKSRLTISKDTSKNQVVLTMTNMDPVDTATYYCARRANYGNPYYAQDYWGQGTTVTVSS
VL: DIVMTQTPLSLPVTPGEPASISCRSSQSIVSSWGNTYLEWYLQKPGQSPQLLIYKVSNRFSGVPDRFSGSGSGTDFTLKISRVEAEDVGVYYCFQGSHVPWTFGQGTKVEIKR
B2: P27592716 (antibody, V domains shown)
VH: EVQLVESGGGLVQPGGSLRLSCAASGFSLSTPGMGVWWIRQAPGKGLEWLADIWWDDNKYTNPSLKSRLTISRDNAKNSLYLQMNSLRAEDTAVYYCARRANYGNPYYAQDYWGQGTTVTVSS
VL: B1 VL
B3: P27602716 (antibody, V domains shown)
VH: B2 VH with I39V, R73K
VL: B1 VL
B4: P27642716 (antibody, V domains shown)
VH: B1 VH with E45K
VL: B1 VL
B5: P27582716 (antibody, V domains shown)
VH: B2 VH with L50V
VL: B1 VL
B6: P27632716 (antibody, V domains shown)
VH: B1 VH with G46A
VL: B1 VL
B7: P27612716 (antibody, V domains shown)
VH: B2 VH with R73K
VL: B1 VL
B8: P27662716 (antibody, V domains shown)
VH: B1 VH with P43S
VL: B1 VL
B9: P27122713 (antibody)
heavy: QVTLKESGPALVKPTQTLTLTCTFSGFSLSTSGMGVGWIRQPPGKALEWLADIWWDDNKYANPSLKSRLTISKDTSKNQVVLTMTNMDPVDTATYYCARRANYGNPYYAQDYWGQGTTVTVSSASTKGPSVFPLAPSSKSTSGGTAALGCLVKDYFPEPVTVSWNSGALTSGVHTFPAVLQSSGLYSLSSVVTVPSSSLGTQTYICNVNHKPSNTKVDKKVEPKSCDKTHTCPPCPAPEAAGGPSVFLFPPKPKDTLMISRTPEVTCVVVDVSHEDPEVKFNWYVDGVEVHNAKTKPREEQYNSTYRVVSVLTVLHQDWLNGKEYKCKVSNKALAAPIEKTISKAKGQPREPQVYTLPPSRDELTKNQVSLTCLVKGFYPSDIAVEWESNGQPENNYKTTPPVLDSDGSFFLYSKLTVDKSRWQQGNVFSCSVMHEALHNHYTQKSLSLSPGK
light: DIVMTQTPLSLPVTPGEPASISCRSSQSIVHSNGNTYLEWYLQKPGQSPQLLIYKVSNRFSGVPDRFSGSGSGTDFTLKISRVEAEDVGVYYCFQGSHVPWTFGQGTKVEIKRTVAAPSVFIFPPSDEQLKSGTASVVCLLNNFYPREAKVQWKVDNALQSGNSQESVTEQDSKDSTYSLSSTLTLSKADYEKHKVYACEVTHQGLSSPVTKSFNRGEC
B10: P27122714 (antibody)
chain 1: not shown
chain 2: B9 light with N33Q
B11: P27152716 (antibody)
heavy: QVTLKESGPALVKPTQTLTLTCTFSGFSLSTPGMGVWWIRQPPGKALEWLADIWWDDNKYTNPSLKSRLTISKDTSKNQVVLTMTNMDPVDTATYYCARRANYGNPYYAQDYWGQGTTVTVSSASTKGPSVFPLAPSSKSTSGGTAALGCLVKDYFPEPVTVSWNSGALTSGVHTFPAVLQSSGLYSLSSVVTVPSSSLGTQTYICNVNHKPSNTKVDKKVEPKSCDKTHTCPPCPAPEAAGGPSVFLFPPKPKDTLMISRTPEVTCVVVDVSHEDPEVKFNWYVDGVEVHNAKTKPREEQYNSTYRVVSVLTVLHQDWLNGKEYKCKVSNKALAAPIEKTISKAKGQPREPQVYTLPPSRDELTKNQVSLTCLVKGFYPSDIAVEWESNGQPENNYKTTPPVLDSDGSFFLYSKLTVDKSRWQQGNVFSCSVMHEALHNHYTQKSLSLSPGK
light: B9 light with H31S, N33W
B12: P27122716 (antibody)
chain 1: not shown
chain 2: B9 light with H31S, N33W
B13: P27152714 (antibody, V domains shown)
VH: B1 VH with E45K, G46A
VL: B1 VL with S31H, W33Q
B14: P27152798 (antibody)
heavy: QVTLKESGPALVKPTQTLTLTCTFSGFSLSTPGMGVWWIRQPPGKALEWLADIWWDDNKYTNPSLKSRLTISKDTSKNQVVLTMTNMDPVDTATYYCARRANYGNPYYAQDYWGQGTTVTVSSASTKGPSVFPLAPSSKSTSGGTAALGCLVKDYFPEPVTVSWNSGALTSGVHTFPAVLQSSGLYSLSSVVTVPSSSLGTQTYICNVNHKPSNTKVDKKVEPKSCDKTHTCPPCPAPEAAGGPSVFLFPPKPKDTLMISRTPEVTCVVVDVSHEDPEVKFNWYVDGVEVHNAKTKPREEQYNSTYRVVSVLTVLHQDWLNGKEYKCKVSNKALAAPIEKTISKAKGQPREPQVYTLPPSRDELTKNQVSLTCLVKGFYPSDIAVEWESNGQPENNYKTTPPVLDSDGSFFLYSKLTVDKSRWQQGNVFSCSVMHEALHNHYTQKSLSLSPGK
light: B9 light with G34A
B15: P27962716 (antibody)
chain 1: not shown
chain 2: B9 light with H31S, N33W

T1 sequence (P02452 162-1218 A1075T, chain 1 of 2): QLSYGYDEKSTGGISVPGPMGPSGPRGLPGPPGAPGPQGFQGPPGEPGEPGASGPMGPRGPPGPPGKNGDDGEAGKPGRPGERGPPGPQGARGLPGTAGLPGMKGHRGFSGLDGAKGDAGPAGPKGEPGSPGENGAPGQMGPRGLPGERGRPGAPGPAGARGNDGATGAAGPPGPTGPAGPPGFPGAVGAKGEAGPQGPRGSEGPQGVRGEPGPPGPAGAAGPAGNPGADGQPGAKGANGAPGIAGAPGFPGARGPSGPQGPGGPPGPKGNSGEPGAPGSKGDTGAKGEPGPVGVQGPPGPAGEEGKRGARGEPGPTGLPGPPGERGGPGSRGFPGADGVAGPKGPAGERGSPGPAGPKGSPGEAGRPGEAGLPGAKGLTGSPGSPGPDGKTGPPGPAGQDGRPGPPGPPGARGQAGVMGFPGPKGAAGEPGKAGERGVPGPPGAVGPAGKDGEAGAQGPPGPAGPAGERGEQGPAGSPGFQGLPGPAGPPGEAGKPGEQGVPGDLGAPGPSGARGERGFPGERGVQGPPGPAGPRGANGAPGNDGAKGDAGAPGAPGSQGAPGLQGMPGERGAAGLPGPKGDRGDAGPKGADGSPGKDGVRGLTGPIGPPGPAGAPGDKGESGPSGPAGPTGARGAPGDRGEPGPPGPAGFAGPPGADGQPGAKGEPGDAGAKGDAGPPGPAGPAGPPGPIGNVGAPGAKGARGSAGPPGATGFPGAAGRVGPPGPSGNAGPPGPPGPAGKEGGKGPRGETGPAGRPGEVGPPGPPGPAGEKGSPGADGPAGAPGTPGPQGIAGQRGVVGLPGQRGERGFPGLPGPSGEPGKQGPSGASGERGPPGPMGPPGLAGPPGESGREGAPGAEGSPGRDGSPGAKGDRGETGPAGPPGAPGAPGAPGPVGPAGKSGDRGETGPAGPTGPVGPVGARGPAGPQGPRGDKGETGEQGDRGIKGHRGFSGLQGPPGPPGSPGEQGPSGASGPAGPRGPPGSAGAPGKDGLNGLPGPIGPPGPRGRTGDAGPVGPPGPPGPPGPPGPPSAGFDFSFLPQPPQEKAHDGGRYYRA
T1 sequence (P08123 80-1119, chain 2 of 2): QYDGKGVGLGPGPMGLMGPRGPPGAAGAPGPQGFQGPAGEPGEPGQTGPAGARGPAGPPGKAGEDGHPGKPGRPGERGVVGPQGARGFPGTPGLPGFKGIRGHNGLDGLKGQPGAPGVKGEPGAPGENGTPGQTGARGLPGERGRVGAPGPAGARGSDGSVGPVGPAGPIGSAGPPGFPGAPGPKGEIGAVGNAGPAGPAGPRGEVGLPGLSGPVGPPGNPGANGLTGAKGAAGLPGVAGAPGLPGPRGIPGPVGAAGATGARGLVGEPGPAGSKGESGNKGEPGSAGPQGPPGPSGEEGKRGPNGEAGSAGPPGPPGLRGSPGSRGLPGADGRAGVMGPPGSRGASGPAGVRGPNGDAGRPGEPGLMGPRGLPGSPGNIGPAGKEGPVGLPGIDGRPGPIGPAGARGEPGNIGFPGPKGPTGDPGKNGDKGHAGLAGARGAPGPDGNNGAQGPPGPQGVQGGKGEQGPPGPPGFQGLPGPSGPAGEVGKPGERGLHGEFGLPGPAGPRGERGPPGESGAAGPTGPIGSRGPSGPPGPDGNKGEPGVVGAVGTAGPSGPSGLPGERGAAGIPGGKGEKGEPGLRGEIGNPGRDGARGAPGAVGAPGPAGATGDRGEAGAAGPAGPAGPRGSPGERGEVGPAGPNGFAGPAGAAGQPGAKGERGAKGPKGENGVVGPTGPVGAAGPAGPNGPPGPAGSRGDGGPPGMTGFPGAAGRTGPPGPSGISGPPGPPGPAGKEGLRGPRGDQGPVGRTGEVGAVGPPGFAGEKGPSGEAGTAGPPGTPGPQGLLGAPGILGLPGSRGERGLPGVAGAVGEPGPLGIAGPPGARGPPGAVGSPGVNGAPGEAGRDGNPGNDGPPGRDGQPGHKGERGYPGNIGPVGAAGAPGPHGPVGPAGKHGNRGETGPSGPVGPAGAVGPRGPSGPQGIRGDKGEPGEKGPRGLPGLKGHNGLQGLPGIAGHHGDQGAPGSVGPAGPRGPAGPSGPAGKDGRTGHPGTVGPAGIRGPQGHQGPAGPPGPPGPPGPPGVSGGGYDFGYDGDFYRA
T3 sequence (P20908 38-1605): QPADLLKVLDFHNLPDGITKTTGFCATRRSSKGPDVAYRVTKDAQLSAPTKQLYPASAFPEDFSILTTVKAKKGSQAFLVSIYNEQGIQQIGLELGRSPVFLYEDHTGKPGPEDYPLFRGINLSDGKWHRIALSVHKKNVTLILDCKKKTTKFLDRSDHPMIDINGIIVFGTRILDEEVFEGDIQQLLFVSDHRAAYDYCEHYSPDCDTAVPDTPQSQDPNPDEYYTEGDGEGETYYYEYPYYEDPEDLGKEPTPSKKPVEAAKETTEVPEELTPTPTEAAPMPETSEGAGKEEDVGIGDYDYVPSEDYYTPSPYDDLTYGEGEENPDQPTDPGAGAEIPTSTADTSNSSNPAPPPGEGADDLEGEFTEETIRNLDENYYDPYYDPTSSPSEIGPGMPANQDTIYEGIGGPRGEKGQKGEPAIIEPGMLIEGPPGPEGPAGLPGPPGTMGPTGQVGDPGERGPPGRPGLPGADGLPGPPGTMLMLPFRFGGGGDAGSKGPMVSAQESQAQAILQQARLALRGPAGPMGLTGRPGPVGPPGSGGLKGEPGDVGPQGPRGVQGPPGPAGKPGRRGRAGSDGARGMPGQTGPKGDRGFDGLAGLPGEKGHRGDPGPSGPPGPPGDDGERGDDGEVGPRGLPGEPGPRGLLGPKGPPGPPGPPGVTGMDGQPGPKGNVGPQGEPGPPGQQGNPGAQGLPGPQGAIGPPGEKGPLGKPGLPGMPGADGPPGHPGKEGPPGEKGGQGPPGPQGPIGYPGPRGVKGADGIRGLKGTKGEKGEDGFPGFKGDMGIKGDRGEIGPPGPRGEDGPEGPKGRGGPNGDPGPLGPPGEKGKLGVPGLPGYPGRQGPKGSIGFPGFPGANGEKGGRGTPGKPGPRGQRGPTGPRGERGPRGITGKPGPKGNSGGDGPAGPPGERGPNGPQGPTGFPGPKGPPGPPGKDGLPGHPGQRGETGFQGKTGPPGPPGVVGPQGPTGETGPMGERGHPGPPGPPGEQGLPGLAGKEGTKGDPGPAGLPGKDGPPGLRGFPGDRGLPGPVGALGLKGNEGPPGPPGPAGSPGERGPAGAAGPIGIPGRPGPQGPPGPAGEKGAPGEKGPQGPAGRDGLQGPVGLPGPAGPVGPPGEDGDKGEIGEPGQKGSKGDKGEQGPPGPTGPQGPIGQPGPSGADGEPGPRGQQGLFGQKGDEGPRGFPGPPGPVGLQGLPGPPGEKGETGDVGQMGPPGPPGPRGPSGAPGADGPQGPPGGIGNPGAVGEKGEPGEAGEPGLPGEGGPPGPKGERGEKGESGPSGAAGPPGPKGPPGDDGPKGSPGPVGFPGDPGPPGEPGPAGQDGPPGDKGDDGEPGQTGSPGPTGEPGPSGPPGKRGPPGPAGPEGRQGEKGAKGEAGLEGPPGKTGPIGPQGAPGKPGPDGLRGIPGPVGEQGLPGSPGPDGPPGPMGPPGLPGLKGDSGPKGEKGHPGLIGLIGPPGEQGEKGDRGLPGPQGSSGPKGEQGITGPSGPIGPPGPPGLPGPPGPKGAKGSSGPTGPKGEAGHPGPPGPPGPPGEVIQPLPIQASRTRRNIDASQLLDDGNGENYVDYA

One test concerns the target T1, denatured human collagen I (UniProt P02452 162-1218; P08123 80-1119). The test can be described thus: ELISA. For orientation: In an ELISA, binding on a coated surface is turned into a signal by an enzyme label.
The EC50 is the concentration giving half of the maximal effect. In turn, B1 registered an EC50 of 11.9 nM.

Molecule B2 came in with a concentration giving a half-maximal response (EC50) of 2.44 nM. Against the preceding molecule, the EC50 is about 4.9-fold lower.

Turning to B3, the midpoint of the response, the EC50, lay at 21.1 nM.

Molecule B4 showed an EC50 of 2.39 nM. This EC50 is about 8.8-fold lower than that of the molecule before.

Molecule B5 returned an EC50 of 9.38 nM.

B6 gave an EC50 of 3.04 nM. Compared with the last molecule, the EC50 is about 3.1-fold lower.

For B7, it took 10.9 nM to reach a half-maximal effect (EC50). This EC50 is about 3.6-fold higher than that of the molecule before.

As to B8, a half-maximal effect (EC50) was put at 9.81 nM.

Another test has as its target T2, denatured human collagen type IV (UniProt P02462 173-1669; P08572 184-1712). The test can be described thus: ELISA.
Consider B9, for which a half-maximal response (EC50) required 10.4 nM.

B10 returned an EC50 of 33.9 nM.

Turning to B11, the EC50 amounted to 1.37 nM.

B12 had an EC50 of 125 nM.

As for B13, a half-maximal effect (EC50) was put at 13 nM.

The target in another test is T1, denatured human collagen I. The test can be described thus: ELISA. This is another data set of the same source.
Molecule B9 displayed an EC50 of 59.7 nM.

B10: the EC50 is 80.8 nM.

As for B14, the EC50 was found to be 76.3 nM.

B11 gave an EC50 of 2.12 nM. This EC50 lies about 36-fold lower than the previous one.

The molecule B12 yielded an EC50 of 19 nM.

In turn, B13 came in with an EC50 of 18.5 nM.

The target of a further test is T2, denatured human collagen type IV. As to the kind of experiment: ELISA. The source holds these as a separate data set.
B14 had a 50% effective concentration (EC50) of 9.97 nM.

In turn, B1 displayed an EC50 of 9.91 nM. The EC50 values of the last two molecules are within 1.5-fold of each other.

For the molecule B2, the response was half-maximal at 1.86 nM (EC50).

For B3, the response was half-maximal at 11.9 nM (EC50).

B4 registered an EC50 of 1.69 nM.

B5 gave an EC50 of 3.83 nM.

In turn, B6 yielded a half-maximal effective concentration (EC50) of 5.05 nM. This EC50 and that of the molecule before are within 1.5-fold of each other.

For B7, the 50% effective concentration (EC50) is 6.13 nM.

On to B8, for which the EC50 was found to be 9.77 nM.

The next test concerns the target T3, denatured human collagen type V (UniProt P20908 38-1605). As to the kind of experiment: ELISA.
For the molecule B9, the half-maximal effective concentration (EC50) was roughly 259 nM.

On to B14, for which the EC50 was 86.2 nM.

Consider B11, for which a half-maximal effect (EC50) was put at 15.2 nM.

The next test has as its target denatured mouse collagen IV (mouse, UniProt P02463 28-1669; P08122 26-1707). As to the kind of experiment: ELISA.
Take B9: the EC50 was 487 nM.

On to B14, for which a half-maximal effect (EC50) was put at 197 nM.

In turn, B11 displayed an EC50 of 229 nM.

In the next test the target is T4, denatured human collagen type III (UniProt P02461 154-1221).
T4 chain: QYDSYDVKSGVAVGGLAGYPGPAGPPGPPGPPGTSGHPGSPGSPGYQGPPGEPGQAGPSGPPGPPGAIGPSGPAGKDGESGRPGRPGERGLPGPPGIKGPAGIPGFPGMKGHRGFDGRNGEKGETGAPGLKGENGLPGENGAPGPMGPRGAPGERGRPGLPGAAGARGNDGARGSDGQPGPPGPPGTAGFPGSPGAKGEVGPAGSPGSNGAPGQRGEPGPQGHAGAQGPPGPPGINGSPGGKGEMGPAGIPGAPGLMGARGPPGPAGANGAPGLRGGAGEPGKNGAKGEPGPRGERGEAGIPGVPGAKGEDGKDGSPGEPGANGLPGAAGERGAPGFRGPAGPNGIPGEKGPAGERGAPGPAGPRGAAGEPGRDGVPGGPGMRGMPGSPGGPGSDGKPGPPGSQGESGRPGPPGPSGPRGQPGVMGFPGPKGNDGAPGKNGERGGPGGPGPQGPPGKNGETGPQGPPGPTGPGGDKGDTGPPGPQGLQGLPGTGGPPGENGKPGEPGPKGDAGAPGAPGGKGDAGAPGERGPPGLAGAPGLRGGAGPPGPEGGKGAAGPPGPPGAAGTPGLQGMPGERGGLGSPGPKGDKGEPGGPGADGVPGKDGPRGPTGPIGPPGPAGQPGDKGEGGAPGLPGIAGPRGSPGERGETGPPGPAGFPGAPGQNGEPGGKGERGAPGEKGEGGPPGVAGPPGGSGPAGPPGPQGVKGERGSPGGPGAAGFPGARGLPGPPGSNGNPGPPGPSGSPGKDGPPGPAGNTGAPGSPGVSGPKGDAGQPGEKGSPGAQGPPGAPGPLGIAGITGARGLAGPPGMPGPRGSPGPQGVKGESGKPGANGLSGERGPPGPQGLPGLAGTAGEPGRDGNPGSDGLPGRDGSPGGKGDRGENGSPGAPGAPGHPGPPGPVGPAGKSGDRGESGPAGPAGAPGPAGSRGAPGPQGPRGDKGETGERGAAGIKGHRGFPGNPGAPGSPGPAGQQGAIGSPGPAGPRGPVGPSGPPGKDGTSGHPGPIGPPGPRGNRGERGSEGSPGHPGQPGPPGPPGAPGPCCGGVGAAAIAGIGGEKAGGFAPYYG
As to the kind of experiment: ELISA.
As to B9, the EC50 came to 32.9 nM.

For the molecule B14, it took 59.6 nM to reach a half-maximal effect (EC50). Compared with the last molecule, the EC50 is about 1.8-fold higher.

Take B11: the half-maximal effective concentration (EC50) is 9.63 nM.

The target in a further test is denatured mouse collagen I (mouse, UniProt P11087 152-1207; Q01149 86-1125). The test can be described thus: ELISA.
For the molecule B11, a half-maximal effect (EC50) was put at 10.2 nM.

A further test has as its target T3, denatured human collagen type V. The test can be described thus: ELISA. The source holds these as a separate data set.
B15: the EC50 stood at 3.31 nM.

The next test addresses T2, denatured human collagen type IV. The test can be described thus: ELISA. This is another data set of the same source.
The molecule B15 displayed a half-maximal effective concentration (EC50) of 18.6 nM. In other words, the double-digit nanomolar range.

Another test concerns the target T4, denatured human collagen type III. The test can be described thus: ELISA. This is another data set of the same source.
B15 returned a 50% effective concentration (EC50) of 3.94 nM.
